Earlier results on one substance are cited in article PMC9696485.

For this series, the target named is integrin α6β4 (Homo sapiens) (UniProt P23229).
Chain of UniProt P23229 (P23229 24-1130, chain 1 of 2): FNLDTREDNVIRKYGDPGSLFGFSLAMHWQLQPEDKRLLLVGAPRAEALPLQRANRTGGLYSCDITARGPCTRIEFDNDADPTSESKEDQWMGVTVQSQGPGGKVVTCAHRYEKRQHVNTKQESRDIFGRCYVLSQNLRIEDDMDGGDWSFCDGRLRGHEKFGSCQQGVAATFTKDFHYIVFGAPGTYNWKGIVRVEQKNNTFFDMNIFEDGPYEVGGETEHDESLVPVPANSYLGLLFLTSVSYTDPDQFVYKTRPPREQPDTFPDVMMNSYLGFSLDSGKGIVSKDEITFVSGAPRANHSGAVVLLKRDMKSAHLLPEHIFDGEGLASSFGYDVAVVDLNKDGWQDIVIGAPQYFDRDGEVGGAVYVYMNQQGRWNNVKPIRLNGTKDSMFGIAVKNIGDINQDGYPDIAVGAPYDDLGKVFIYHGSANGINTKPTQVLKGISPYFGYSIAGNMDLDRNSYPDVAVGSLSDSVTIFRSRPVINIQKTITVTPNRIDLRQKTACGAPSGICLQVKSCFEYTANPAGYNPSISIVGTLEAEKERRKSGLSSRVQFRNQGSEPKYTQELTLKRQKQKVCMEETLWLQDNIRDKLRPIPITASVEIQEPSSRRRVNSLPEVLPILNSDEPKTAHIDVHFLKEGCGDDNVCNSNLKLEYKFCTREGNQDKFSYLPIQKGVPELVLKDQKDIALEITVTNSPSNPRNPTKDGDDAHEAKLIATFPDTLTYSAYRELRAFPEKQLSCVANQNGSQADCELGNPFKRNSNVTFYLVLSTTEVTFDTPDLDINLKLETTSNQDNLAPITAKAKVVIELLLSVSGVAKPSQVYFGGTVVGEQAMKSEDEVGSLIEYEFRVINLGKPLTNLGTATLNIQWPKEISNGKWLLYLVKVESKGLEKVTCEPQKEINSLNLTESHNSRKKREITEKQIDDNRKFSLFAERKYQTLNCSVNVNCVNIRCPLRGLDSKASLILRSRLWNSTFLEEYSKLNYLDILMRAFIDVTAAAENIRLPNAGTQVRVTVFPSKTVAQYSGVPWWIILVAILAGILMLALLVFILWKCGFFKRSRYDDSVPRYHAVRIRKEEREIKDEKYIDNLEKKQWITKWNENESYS
Chain of UniProt P23229 (P16144 28-1822, chain 2 of 2, further chain): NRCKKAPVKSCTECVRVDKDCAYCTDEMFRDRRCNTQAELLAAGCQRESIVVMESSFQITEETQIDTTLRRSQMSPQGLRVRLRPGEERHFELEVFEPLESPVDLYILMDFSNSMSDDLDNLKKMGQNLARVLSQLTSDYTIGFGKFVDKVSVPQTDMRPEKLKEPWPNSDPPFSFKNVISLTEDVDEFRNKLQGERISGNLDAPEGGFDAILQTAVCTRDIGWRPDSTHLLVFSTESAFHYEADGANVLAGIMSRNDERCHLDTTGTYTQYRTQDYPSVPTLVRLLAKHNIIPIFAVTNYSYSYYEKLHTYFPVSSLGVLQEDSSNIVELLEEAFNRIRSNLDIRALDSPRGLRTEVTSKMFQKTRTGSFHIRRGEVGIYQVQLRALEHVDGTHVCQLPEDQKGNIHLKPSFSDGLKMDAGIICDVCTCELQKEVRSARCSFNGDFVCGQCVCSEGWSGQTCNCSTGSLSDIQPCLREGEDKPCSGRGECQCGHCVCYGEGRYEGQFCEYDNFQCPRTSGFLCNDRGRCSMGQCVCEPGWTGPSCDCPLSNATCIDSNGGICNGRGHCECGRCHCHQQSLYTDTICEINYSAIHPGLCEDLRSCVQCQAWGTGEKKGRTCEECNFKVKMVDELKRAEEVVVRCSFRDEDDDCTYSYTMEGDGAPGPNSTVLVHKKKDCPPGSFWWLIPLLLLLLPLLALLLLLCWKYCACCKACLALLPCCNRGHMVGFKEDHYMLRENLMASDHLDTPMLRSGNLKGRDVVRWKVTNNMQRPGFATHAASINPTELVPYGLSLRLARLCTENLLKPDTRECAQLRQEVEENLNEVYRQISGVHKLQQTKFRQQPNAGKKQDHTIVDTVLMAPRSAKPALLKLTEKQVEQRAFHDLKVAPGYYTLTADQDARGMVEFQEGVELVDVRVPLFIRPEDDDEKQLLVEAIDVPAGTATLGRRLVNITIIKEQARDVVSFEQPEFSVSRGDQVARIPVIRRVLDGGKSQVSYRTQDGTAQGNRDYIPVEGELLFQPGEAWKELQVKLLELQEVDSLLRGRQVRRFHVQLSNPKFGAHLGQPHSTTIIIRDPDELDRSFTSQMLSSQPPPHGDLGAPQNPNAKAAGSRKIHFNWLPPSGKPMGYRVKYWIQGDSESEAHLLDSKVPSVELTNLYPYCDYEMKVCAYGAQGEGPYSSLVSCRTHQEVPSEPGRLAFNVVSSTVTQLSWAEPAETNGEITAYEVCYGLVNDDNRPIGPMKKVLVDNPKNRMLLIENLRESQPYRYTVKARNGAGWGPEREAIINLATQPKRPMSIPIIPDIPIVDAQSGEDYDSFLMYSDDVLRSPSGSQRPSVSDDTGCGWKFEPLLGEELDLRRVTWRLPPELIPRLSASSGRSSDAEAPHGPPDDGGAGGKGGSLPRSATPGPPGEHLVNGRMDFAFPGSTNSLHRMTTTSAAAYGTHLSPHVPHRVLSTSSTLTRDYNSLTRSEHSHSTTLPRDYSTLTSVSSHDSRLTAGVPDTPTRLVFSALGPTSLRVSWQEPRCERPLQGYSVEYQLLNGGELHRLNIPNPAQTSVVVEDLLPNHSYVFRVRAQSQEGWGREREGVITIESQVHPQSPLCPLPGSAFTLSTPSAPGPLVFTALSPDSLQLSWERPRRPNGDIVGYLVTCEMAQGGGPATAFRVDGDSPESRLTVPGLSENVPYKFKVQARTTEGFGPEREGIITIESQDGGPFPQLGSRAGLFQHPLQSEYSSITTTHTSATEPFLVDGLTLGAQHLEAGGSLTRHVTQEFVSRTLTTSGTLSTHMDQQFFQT

For AG86 laminin peptide, the Kd was 2.5 µM.
